Experimental data reported in the nanobody polyreactivity screen of Harvey et al. (2022).

test: yeast display, Sf9 membrane polyspecificity reagent, FACS + sequencing; frameworks hold sequencing errors
Summary of the method: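 A synthetic nanobody library was expressed on Saccharomyces cerevisiae BJ5465 by galactose induction for 36–48 hours. The library was stained for 1 hour at 4 °C with 10% biotinylated, detergent-solubilized Sf9 membrane reagent and enriched with streptavidin microbeads before FACS. Low and high (top ~1%) gates were set on anti-HA fluorescence for expression and streptavidin fluorescence for reagent binding, and each polyreactivity label reflects the gate of origin.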

Sequence	polyreactivity (PSR sort gate)
QVQLVESGGGLVQAGGSLRLSCAASGSTFGANAMGWYRQAPGKEREFVAAISRSGVRTYYADSVKGRFTISRDNAKNTVYVQMNSLKPEDSAVYYCAADGYWLTYTRYDYWGQGTQVTVSS	low polyreactivity
QVQLVESGGGLVQAGGSLRLSCAASGSTFGANAMGWYRQAPGKERELVAVITWNDGSTYYADSVKGRFTISRDNAKNTVYLQMNSLKPEDTAVYYCATDPTSGRFYYWGQGTQVTVSS	high polyreactivity
QVQLVESGGGLVQAGGSLRLSCAASGSTFGAYAMGWYRQAPGKEREFVAGISVRGGSTYYADSVKGRFTISRDNAKNTVYLQMNSLKPEDTAVYYCAARRVDTRFHVRYRYYYWGQGTQVTVSS	high polyreactivity
QVQLVESGGGLVQAGGSLRLSCAASGSTFGAYDMGWYRQAPGKERELVAVISSRDGSTYYADSVKGRFTISRDNAKNTVYLQMNSLKPEDTAVYYCAADYPVPYNGGDGSWGQGTQVTVSS	low polyreactivity
QVQLVESGGGLVQAGGSLRLSCAASGSTFGAYVMGWYRQAPGTERELVAVISSGGSTKYADSVKGRFTISRDNAKNTVYLQMNSLKPEDTAVYYCSARRASRHRYYPFDYWGQGTQVTVSS	high polyreactivity
QVQLVESGGGLVQAGGSLRLSCAASGSTFGDNAMGWYRQAPGKERELVATITSGGNTNYADSVKGRFTISRDNAKNTVYLQMNSLKPEDTAGYYCNTDFRPAGTTGTTTARYEYWGQGTQVTLSS	low polyreactivity
QVQLVESGGGLVQAGGSLRLSCAASGSTFGDYAMGGYRQAPGKERELVAAISFSDGSTYYADSVKGRFTISRDNAKNTVYLQMNSLKPEDTAVYYCAKDAYWGYRWYTYDYWGQGTQVTVSS	low polyreactivity
QVQLVESGGGLVQAGGSLRLSCAASGSTFGDYAMGGYRQAPGKERELVAANDQNGGSTYYADSVKGRITISRDNAKNTVYLQMNSLIPEDTAVYYCAAESIYDWYDYGGQGTQVTVSS	low polyreactivity
QVQLVESGGGLVQAGGSLRLSCAASGSTFGDYAMGWYRQAPGKREFVAAISFSGGNTYYADSVKGRFTISRDNAKNTVYLQMNSLKPEDTAVYYCNASSYPWEYYYLYYGYDYWGQGTQVTVSS	low polyreactivity
QVQLVESGGGLVQAGGSLRLSCAASGSTFGEYAMGWSRQAPGKERELVATITSAGSTYYADSVKGRITFSRDNAKYTVYLQMNSLKPEDTAVYYCAVDPISQGHMDYWVQGTQVTVSS	low polyreactivity
QVQLVESGGGLVQAGGSLRLSCAASGSTFGEYAMGWYRQAPGKERELVAVITSDDNTYYADSVKGRFTISRDNAKNTVYLQMNSLKPEDTAVYYCAARGYVLARSQQWRREYYWGQGTQVTVSS	high polyreactivity
QVQLVESGGGLVQAGGSLRLSCAASGSTFGFNALGWYRQAPGKERELVAAITFSGGTTYYADSVKGRFTISRDNAKNTVYLQMNSLKPEDTAVYYCNADVKRDRVWGGDYWGQGTQVTVSS	low polyreactivity
QVQLVESGGGLVQAGGSLRLSCAASGSTFGFNAMGWYRQAPGKERELVAAINSGSTTYADSVKGRFTISRDNAKNTVYLQMNSLKPEDTAVYYCAARYRYRYGYYYWGQGTQVTVSS	high polyreactivity
QVQLVESGGGLVQAGGSLRLSCAASGSTFGFYAMGWYRQAPGKEREFVAAITWSGGRTNYADSVKGRFTISRDNAKNTVYLQMNSLKPEDTAVYYCAAEGFVTWYRQGQVYYWGQGTQVTVSS	high polyreactivity
QVQLVESGGGLVQAGGSLRLSCAASGSTFGFYMGWYRQAPGKERELVAAIDSSGGITYADSVKGRFTISRDNAKNTVYLQMNSLKPEDTAVYYCNTSYPIAPEDDYWGQGTQVTVSS	low polyreactivity
QVQLVESGGGLVQAGGSLRLSCAASGSTFGGNAMGWYRQAPGKERELVAAISSSGGSTYYADSVKGRFTISRDNAKITVYLQMNSLKPEDTAVYYCAALYHWTYDYWGQGTQVTVSS	low polyreactivity
QVQLVESGGGLVQAGGSLRLSCAASGSTFGGNAMGWYRQAPGKERELVAAISSSGGSTYYADSVKGRFTISRDNAKNTVYLQMNSLKPEDTAVYYCAALYHWTYDYWGQGTQVTVSS	low polyreactivity
QVQLVESGGGLVQAGGSLRLSCAASGSTFGGNAMGWYRQAPGKERELVAGITSSGTSTYYADSVKGRFTISRDNAKNTVYLQMNSLKPEDTAVYYCATDEADESYGFELFDYWGQGTQVTVSS	low polyreactivity
QVQLVESGGGLVQAGGSLRLSCAASGSTFGGNDMGWYRQAPGKERELVAAISSGTSTNYADSVKGRFTISRDNAKNTVYLQMNSLKPEDTAVYYCAAVYWVLWQGSTYGYWGQGTQVTVSS	low polyreactivity
QVQLVESGGGLVQAGGSLRLSCAASGSTFGGYAMGWYRQAPGKERELVAAISFDGGSTYADSVKGRFTISRDNAKNTVYLQMNSLKPEDTAVYYCAVKFWLVIQFDYCGQGTQVTVSS	low polyreactivity
QVQLVESGGGLVQAGGSLRLSCAASGSTFGGYAMGWYRQAPGKERELVAAISRRGVSTYYADSVKGRFTISRDNAKNTVYLQMNSLKPEDTAVYYFNKKYFYSRHGSWGQGSQVTVSS	high polyreactivity
QVQLVESGGGLVQAGGSLRLSCAASGSTFGGYAMGWYRQAPRKERELVAAISQSGTRTFYADSVKGRFSISRDNAKNTVYLQMKSLKPEDSAVYYCAAVRSYRRALLTLDYWGLGTQVTVSS	high polyreactivity

Sequence	polyreactivity (PSR sort gate)
QVQLVESGGGLVQAGGSLRLSCAASGSTFGGYAMGWYRQEPGKERELVAAISSRGARTYYADSVKGRFTISRDNAKKTVYLQMNSLKPEDTAVYYCAARGPLDRYGYWGQGTQVTVSS	high polyreactivity
QVQLVESGGGLVQAGGSLRLSCAASGSTFGGYPMGRYRQAPGKERELGAAITWSGSSTTYADSVKGRFTISRDNAKKTVYLQMNSLKPEETAVYYCAAEAQDSTYPQYDYWGQGTLVTVSS	low polyreactivity
QVQLVESGGGLVQAGGSLRLSCAASGSTFGGYTMGWYRQAPGKERELVAAISRRGGSTYYADSVKGRFTISRDNAKNTVYLQMNSLKPEDTAVYYCAALYVYRPRTPYGYWGQGTQVTVSS	high polyreactivity
QVQLVESGGGLVQAGGSLRLSCAASGSTFGGYVMGWYRQAPGKERELVAAISGNGASTTYADSVKGRFTISRDNAKNTVYLQMNSLKPEDTAVYYCDALYRKAHSDYDYWGQGTQVTVSS	low polyreactivity
QVQLVESGGGLVQAGGSLRLSCAASGSTFGHYAMGWSRQAPGKERELVAAISWSGASTYYADSVKGRFTISRDNAKNTVYLQMNSLKPEDTAVYYCATVGPWPGEYDYWGQGTQVTVSS	low polyreactivity
QVQLVESGGGLVQAGGSLRLSCAASGSTFGHYAMGWSRQAPGKERELVAVISRSGARTYYADSVKGRFTISRDNAKNTVYLQMNSLKPEDTAVYYCATTYATNYDYWGQGTQVTVSS	high polyreactivity
QVQLVESGGGLVQAGGSLRLSCAASGSTFGHYAMGWYRQAPGKERELVAAITRRGGSTYYADSVKGRFTISRDNAKNTVYLQMNSLKPEDTAVYYCATDKHYVYYSSHMGYWGQGTQVTVSS	high polyreactivity
QVQLVESGGGLVQAGGSLRLSCAASGSTFGHYAMRSYRQAPGKERQLVAGITDTDNHELRRLCEGRFTISRDNAKNTVYLQMNSLKPEDTAVYDCDAGSNAVFYDYGYWGQGTQVTVSS	low polyreactivity
QVQLVESGGGLVQAGGSLRLSCAASGSTFGHYVMGWYRQAPGKERELVAVISSSGGRTYYADSVKGRFTISRDNAKNTVYLQMNSLKPEDTAVYYCAAGSISTPGRGVDKPDPYDYWGQGTQVTVSS	low polyreactivity
QVQLVESGGGLVQAGGSLRLSCAASGSTFGINAMGWYRQAPGKERDLVAAISSRGGSTYYADSVKGRFTISRDNAKNTVYLLMNSLKPEDTAVYYCAAEFAVSFYWSWLGQDYYYWGQGTQVTVSS	high polyreactivity
QVQLVESGGGLVQAGGSLRLSCAASGSTFGINAMGWYRQAPGKERELVARISTGVRTYYADSVKGRFTISRDNAKNTVYLQMNSLKPEDTAVYYCAAVYYRGVDRAILSYRYYYWGQGTQVTVSS	high polyreactivity
QVQLVESGGGLVQAGGSLRLSCAASGSTFGINTMGWYRQAPGKERELVATISQRGTRTYYADSVKGRFTISRDNAKNTVYLQMNSLKPEDTAVYYCNKDVYLYYYTRRSGRLDYWGQGTQVTVSS	high polyreactivity
QVQLVESGGGLVQAGGSLRLSCAASGSTFGIYAMGWYRQAPGKERELVAAISWRGGRTYYADSVKGRFTISRDNAKNTVYLQMNSLKPEDTAVYYCAADYRYLWEGYDYWGQGTQVTVSS	low polyreactivity
QVQLVESGGGLVQAGGSLRLSCAASGSTFGKNAMAWYRQAPGKERELVAAITSSGGRTYYADSVKGRFTISRDNAKNTVYLQMNSLKPEDTAVYYCNSVTRRRSLGPWPVEYDYWGQGTQVTVSS	high polyreactivity
QVQLVESGGGLVQAGGSLRLSCAASGSTFGKNAMGWYRQAPGKERELVAAITSSGGRTYYADSVKGRFTISRDNAKNTVYLQMNSLKPEDTAVYYCNAVTRRRSLGPWPVEYDYWGQGTQVTVSS	high polyreactivity
QVQLVESGGGLVQAGGSLRLSCAASGSTFGKYAMGWSRPAPGKERELVAAITVNAGRTYYADSVKGRFTISRDNAKNTVYLQMNSLKPEDTAVYYCNADFFTIYDYWGQGTQVTVSS	high polyreactivity
QVQLVESGGGLVQAGGSLRLSCAASGSTFGKYAMGWYRQAPGKERELVAAISKSGGSTYYADSVKGRFTISRDNAKNTVYLQMNSLKPEDTAVYYCAADVTYGTKWAYDYWGQGTQVTVSS	high polyreactivity
QVQLVESGGGLVQAGGSLRLSCAASGSTFGKYAMGWYRQAPGKERELVATISWSGTSTYYADSVKGRFTISRDNAKNTVYLQMNSLKPEDTAVYYCAADSEGVGVKHIYDYWGQGTQVTVSS	low polyreactivity
QVQLVESGGGLVQAGGSLRLSCAASGSTFGKYAMGWYRQATGKERELVAAITNGGRTNYADSVKGRFTISRDNAMNTVYLQMNSMKPEDTAVYYCNKARYGTDDYDYWGQGTQVTVSS	low polyreactivity
QVQLVESGGGLVQAGGSLRLSCAASGSTFGKYTMGWYRQAPGKERELVAAISWSGGNTYYADSVKGRFTISRDNAKNTVYLQMNSLKPEDTAVYYCAAEREAYNTWFDYWGQGTQVTVSS	high polyreactivity
QVQLVESGGGLVQAGGSLRLSCAASGSTFGLNAMGWYRQAHGKERDVVAAITRSDITNYADSVKGRFTISRDNAKNTVYLQMNSLKPEDTAVYYCNKTPDRHRRYFGYGYWGQGTQVTVSS	low polyreactivity
